The record followed here is the RNAGym collection of RNA variant scans (doi:10.7554/elife.80360).

To fix the notation:
B1: Hairpin Ribozyme (parent)
chain: GUCCUCUUUCACGUGCGCGUGAAAGAGAGAAGUGAACCAGAGAAACACACGUUGUGGUAUAUUACCUGGUA

The variants in this data set derive from B1. Nature of the data set: self-cleavage, relative activity (ratio to wild type); higher = more cleavage; co-transcriptional.
GUCCUCUUGCACGUGCGCGUGAAAGAGAGAAGUGAACCAGUGAAACACACGUUGUGGUAUAUUACCUGGUA: the self-cleavage was 1.15.
GUCCUCUUGCACGUGCACGUGAAAGAGAGAAGUGAACCAGAGAAACACACGUUGUGGUAUAUUACCUGGUA: the self-cleavage is 0.571.
In the case of GUCCUCUUGCACGUGCUCGUGAAAGAGAGAAGUGAACCAGAGAAACACACGUUGUGGUAUAUUACCUGGUA it was 0.847.
In the case of GUCCUCUUGCACGUGCGCGUGAAAGAGAGAAGUGAACCAGAGAACCACACGUUGUGGUAUAUUACCUGGUA, the self-cleavage came out at 0.0983.
With GUCCUCUUGCACGUGGGCGUGAAAGAGAGAAGUGAACCAGAGAAACACACGUUGUGGUAUAUUACCUGGUA, the self-cleavage came to 0.431.
In the case of GUCCUCUUUAACGUGCGCGUGCAAGAGAGAAGUGAACCAGAGAAACACACGUUGUGGUAUAUUACCUGGUA, the self-cleavage amounted to 0.636.
Consider GUCCUCUUGCACGUGCGCGUGAAAGAGAGAAGCGAACCAGAGAAACACACGUUGUGGUAUAUUACCUGGUA, for which the self-cleavage was 0.176.
In the case of GUCCUCUUGCACGUGCGCGUGAAAGAGAGAAGAGAACCAGAGAAACACACGUUGUGGUAUAUUACCUGGUA it was 0.102.
For GUCCUCUUGCACGUGCGCGUGAAAGAGAGAAGUGAACCACAGAAACACACGUUGUGGUAUAUUACCUGGUA the value was 0.104; for GUCCUCUUGCACGUGCGCGUGAAAGAGAGAAGUGAACCAGAGAAACACACGUUGUGGUAUAUUACAUGGUA, 0.279; for GUCCUCUUGCACGUGCGCGUGAAAGAGAGAAGUGAACCAGAGAAACACACGUUGUGGUAUGUUACCUGGUA, 0.257.
For the variant GUCCUCUUGCACGUGCGCGUGGAAGAGAGAAGUGAACCAGAGAAACACACGUUGUGGUAUAUUACCUGGUA, the self-cleavage was determined as 0.79.
For GUCCUCUUGCACGUGCGCGUGAAAGAGAGAAGUGAACCAGAGAAACACACGUUGUGAUAUAUUACCUGGUA the value was 0.132; for GUCCUCUUGCACGUGCGCGUGAAAGAGAGAAGUGAACCCGAGAAACACACGUUGUGGUAUAUUACCUGGUA, 0.356; for GUCCUCUUUAACGUGCGCGUGACAGAGAGAAGUGAACCAGAGAAACACACGUUGUGGUAUAUUACCUGGUA, 0.657.
As to GUCCUCUUGCACGUGCGCGUGAAAGAGAGAAGUGAACCAGAGAAACACACGUUAUGGUAUAUUACCUGGUA, the self-cleavage worked out at 0.418.
For GUCCUCUUCCACGUGCGCGUGAAAGAGAGAAGUGAACCAGAGAAACACACGUUGUGGUAUAGUACCUGGUA the value was 0.199.
In the case of GUCCUCUUGCACGUGCGCGGGAAAGAGAGAAGUGAACCAGAGAAACACACGUUGUGGUAUAUUACCUGGUA it was 0.333.
In the case of GUCCUCUUCCACGUGCGCGUGAAAGAGAGAAGUGAACCAGAGAAACACACGUUGUGGCAUAUUACCUGGUA it was 0.747; in that of GUCCUCUUGCACGUGCGCGUGAAAGAGUGAAGUGAACCAGAGAAACACACGUUGUGGUAUAUUACCUGGUA, 0.46; in that of GUCCUCUUCCACGUGCGCGUGAAAGAGAGAAGUGAACCAGAGAAACACACGUUGUGGUAUAUUACCUGGGA, 0.687.
GUCCUCUUUAACGUGCGCGUGAAGGAGAGAAGUGAACCAGAGAAACACACGUUGUGGUAUAUUACCUGGUA: the self-cleavage was 0.57.
For GUCCUCUUUAACGUGCGCGUGAAUGAGAGAAGUGAACCAGAGAAACACACGUUGUGGUAUAUUACCUGGUA, the self-cleavage amounted to 0.584.
Regarding GUCCUCUUGCACGUGCGCGUGAAAGAGAGAAGUGAACCAGAGAAACACACGUUGUGGUAGAUUACCUGGUA, the self-cleavage worked out at 0.322.
For GUCCUCUUGCACGUGCGCGUGAAAGAGAGAAGUGAACCAGAGAAACACACGUUGUGGUAUAUAACCUGGUA the value was 0.102; for GUCCUCUUGCACGUCCGCGUGAAAGAGAGAAGUGAACCAGAGAAACACACGUUGUGGUAUAUUACCUGGUA, 0.893; for GUCCUCUUGCACGUUCGCGUGAAAGAGAGAAGUGAACCAGAGAAACACACGUUGUGGUAUAUUACCUGGUA, 0.894.
Consider GUCCUCUUCCACGUGCGCGUGAAAGAGAGAAGUGAACCAGAGAAACACACGUUGUGGUAUAUAACCUGGUA, for which the self-cleavage was found to be 0.131.
For GUCCUCUUGCACGUGCGCGUGAAAGAGAGAAGUGAACCAGAGAAACACACGUUGUGGUAUAUUACCCGGUA the value was 0.188; for GUCCUCUUGCACGUGCGCGUGAAAGAGAGAAGUGAGCCAGAGAAACACACGUUGUGGUAUAUUACCUGGUA, 0.793; for GUCCUCUUGCACGUGCGCGUGAAAGAGAGAAGUGACCCAGAGAAACACACGUUGUGGUAUAUUACCUGGUA, 0.381.
Take GUCCUCUUGCACGUGCGCGUGAAAGAGAGAAGUGAUCCAGAGAAACACACGUUGUGGUAUAUUACCUGGUA: the self-cleavage stood at 0.431.
In the case of GUCCUCUUGUACGUGCGCGUGAAAGAGAGAAGUGAACCAGAGAAACACACGUUGUGGUAUAUUACCUGGUA it was 0.743; in that of GUCCUCUUGAACGUGCGCGUGAAAGAGAGAAGUGAACCAGAGAAACACACGUUGUGGUAUAUUACCUGGUA, 0.735.
In the case of GUCCUCUUGCACGUGCGCGUGAAAGAGAGAAGUGAACCAGAGAAACACACAUUGUGGUAUAUUACCUGGUA it was 0.626.
For the variant GUCCUCUUGCACGUGCGCGUGAAAGAGAGAAGUGAACCAGAGAAACACACGUUGUGGUUUAUUACCUGGUA, the self-cleavage came to 0.101.
In the case of GUCCUCUUGCACGUGCGCGUGAAAGAGAGAAGUGAACCAGAGAAACACACGUUGUGGUCUAUUACCUGGUA it was 0.275.
In the case of GUCCUCUUGCACGUGCGCGUGAAAGAGAGAAGUGAACCAGAGAAACGCACGUUGUGGUAUAUUACCUGGUA it was 0.231.
Consider GUCCUCUUGCACGGGCGCGUGAAAGAGAGAAGUGAACCAGAGAAACACACGUUGUGGUAUAUUACCUGGUA, for which the self-cleavage stood at 0.597.
For GUCCUCUUGCACGUGCGCGUGAAAGACAGAAGUGAACCAGAGAAACACACGUUGUGGUAUAUUACCUGGUA the value was 0.115; for GUCCUCUUGCACGUGCGCGUGAAAGAGAGAAGUGAACCAGAGAAACACACGUUGUGGUAUAUUACCUGGUC, 1.2.
Regarding GUCCUCUUGCACGUGCGCGUGAAAGAGAGAAGUGAACCAGAGAAACACACGUUGUGGUAUAUUACCUGGUG, the self-cleavage came to 0.779.
On to GUCCUCUUGCACGUGCGCGUGAAAGAGAGAAGUGAACCAGAGAAACACACGUUGUGGUAUAUUACCUGGUU, for which the self-cleavage was 0.601.
For GUCCUCUUCCACGUGCGCGUGAAAGAGAGAAGUGAACCAGAGAAACACACGUUGUGGUAGAUUACCUGGUA, the self-cleavage was 0.615.
In the case of GUCCUCUUGCACGUGCGCGUGAAAGAGAGAAGUGAACCAGAGAUACACACGUUGUGGUAUAUUACCUGGUA it was 0.162.
For GUCCUCUUGCACGUGCGCGUGAAGGAGAGAAGUGAACCAGAGAAACACACGUUGUGGUAUAUUACCUGGUA the value was 0.672.
In the case of GUCCUCUUGCACGUGCGCGUGAAAGAGAGAAGUGAACCAGAGAAACACACGUUGUGGUAUAUUACCUGCUA it was 0.299.
Consider GUCCUCUUGCACGUGCGCGUGAAAGAGAGAAGUGAACCAGAGAAACACUCGUUGUGGUAUAUUACCUGGUA, for which the self-cleavage is 0.163.
In the case of GUCCUCUUGCACGUGCGCGUGAAAGAGAGAAGUGAACCAGAGAAACACCCGUUGUGGUAUAUUACCUGGUA it was 0.182; in that of GUCCUCUUCCACGUGCGCGUGAAAGAGAGAAGUGAACCAGAGAAACACACGUUGGGGUAUAUUACCUGGUA, 0.266.
For GUCCUCUUGCACGUGCGAGUGAAAGAGAGAAGUGAACCAGAGAAACACACGUUGUGGUAUAUUACCUGGUA the value was 0.707; for GUCCUCUUGCACGUGCGCGUGAAAGAGAUAAGUGAACCAGAGAAACACACGUUGUGGUAUAUUACCUGGUA, 0.1.
GUCCUCUUGCACGUGCGCGUGAAAGAGACAAGUGAACCAGAGAAACACACGUUGUGGUAUAUUACCUGGUA: the self-cleavage turned out to be 0.129.
In the case of GUCCUCUUGCACGUGCGCGUGAAAGAGAAAAGUGAACCAGAGAAACACACGUUGUGGUAUAUUACCUGGUA it was 0.0566; in that of GUCCUCUUGCACGUGCGCGUGAAAGAGAGAAGUGAACCAGAGAAACACACGUUGCGGUAUAUUACCUGGUA, 0.163; in that of GUCCUCUUGCACGUGCGCGUGAAAGAGAGAAGUGAACCAGAGAAACACACGUUGUGGUAUAUUACCUCGUA, 0.136.
Take GUCCUCUUGCACGUGCGCCUGAAAGAGAGAAGUGAACCAGAGAAACACACGUUGUGGUAUAUUACCUGGUA: the self-cleavage worked out at 0.56.
With GUCCUCUUGCACGUGCGCGUGAAAGAGAGAAGUGAACCAGAGAAACACACGUUGUGGUAUAGUACCUGGUA, the self-cleavage is 0.154.
Take GUCCUCUUGCACGUGCGCGUGAAAGAGAGAAGUGAACCAGAGAAACACACGUUGUUGUAUAUUACCUGGUA: the self-cleavage was 0.124.
With GUCCUCUUGCACGUGCGCGUGAAAGAGAGAAGUGGACCAGAGAAACACACGUUGUGGUAUAUUACCUGGUA, the self-cleavage was determined as 0.546.
In the case of GUCCUCUUGCACGUGCGCGUGAAAGAGAGAAGUGAACCAGAGAAACACACGUUGUGGUAUAUUAGCUGGUA it was 0.207; in that of GUCCUCUUGCAAGUGCGCGUGAAAGAGAGAAGUGAACCAGAGAAACACACGUUGUGGUAUAUUACCUGGUA, 0.499.
In the case of GUCCUCUUGCAGGUGCGCGUGAAAGAGAGAAGUGAACCAGAGAAACACACGUUGUGGUAUAUUACCUGGUA it was 0.53.
In the case of GUCCUCUUUAACGUGCGCGUGAAAGCGAGAAGUGAACCAGAGAAACACACGUUGUGGUAUAUUACCUGGUA, the self-cleavage worked out at 0.297.
As for GUCCUCUUGCACGUGCGCGUGAUAGAGAGAAGUGAACCAGAGAAACACACGUUGUGGUAUAUUACCUGGUA, the self-cleavage was 0.482.
Consider GUCCUCUUGCACGUGCGCGUGACAGAGAGAAGUGAACCAGAGAAACACACGUUGUGGUAUAUUACCUGGUA, for which the self-cleavage is 0.589.
GUCCUCUUGCUCGUGCGCGUGAAAGAGAGAAGUGAACCAGAGAAACACACGUUGUGGUAUAUUACCUGGUA: the self-cleavage amounted to 0.566.
For GUCCUCUUGCACGUGCGCGUGAAAAAGAGAAGUGAACCAGAGAAACACACGUUGUGGUAUAUUACCUGGUA the value was 0.153.
For GUCCUCUUGCACGUGCGCGUGAAAGAGAGAAGUGAACUAGAGAAACACACGUUGUGGUAUAUUACCUGGUA the value was 0.41; for GUCCUCUUGCACGUGCGCGUGAAAGAGAGAAGUGAACAAGAGAAACACACGUUGUGGUAUAUUACCUGGUA, 0.243.
Turning to GUCCUCUUGCACGUGCGCGUGAAAGAGAGAAGUGAACCAGAUAAACACACGUUGUGGUAUAUUACCUGGUA, the self-cleavage amounted to 0.364.
In the case of GUCCUCUUGCACGUGCGCGUGAAAGAGAGAAUUGAACCAGAGAAACACACGUUGUGGUAUAUUACCUGGUA, the self-cleavage was 0.123.
In the case of GUCCUCUUGCACGUGCGCGUGAAAGAGAGAAGUGAACCAGAGAAACACACGUUGUGGGAUAUUACCUGGUA it was 0.579; in that of GUCCUCUUGCACGUGCGCGUGAAAGAGAGAAGUGAACCAGAGAAACACACGUUGUGGCAUAUUACCUGGUA, 0.794; in that of GUCCUCUUCCACGUGCGCGUGAAAGAGAGAAGUGAACCAGAGAAACACACGUUGUGGUAUAUUACCGGGUA, 0.283.
In the case of GUCCUCUUCCACGUGCGCGUGAAAGAGAGAAGUGAACCAGAGAAACACACGUUGUGGUAUAUUACCCGGUA it was 0.203.
